From article PMC8005358 (Science translational medicine, 2019)

B1: recombinant human erythroferrone variant with a VPFQ insertion (ERFE^VPFQ) (natural protein, UniProt Q4G0M1 29-354, looked up)
chain: SPEPGAPSRSRARREPPPGNELPRGPGESRAGPAARPPEPTAERAHSVDPRDAWMLFVRQSDKGVNGKKRSRGKAKKLKVPFQFGLPGPPGPPGPQGPPGPIIPPEALLKEFQLLLKGAVRQRERAEPEPCTCGPAGPVAASLAPVSATAGEDDDDVVGDVLALLAAPLAPGPRAPRVEAAFLCRLRRDALVERRALHELGVYYLPDAEGAFRRGPGLNLTSGQYRAPVAGFYALAATLHVALGEPPRRGPPRPRDHLRLLICIQSRCQRNASLEAIMGLESSSELFTISVNGVLYLQMGQWTSVFLDNASGCSLTVRSGSHFSAVLLGV
B2: recombinant human erythroferrone, wild type (ERFE^WT) (natural protein, UniProt Q4G0M1 29-354, looked up)
chain: SPEPGAPSRSRARREPPPGNELPRGPGESRAGPAARPPEPTAERAHSVDPRDAWMLFVRQSDKGVNGKKRSRGKAKKLKFGLPGPPGPPGPQGPPGPIIPPEALLKEFQLLLKGAVRQRERAEPEPCTCGPAGPVAASLAPVSATAGEDDDDVVGDVLALLAAPLAPGPRAPRVEAAFLCRLRRDALVERRALHELGVYYLPDAEGAFRRGPGLNLTSGQYRAPVAGFYALAATLHVALGEPPRRGPPRPRDHLRLLICIQSRCQRNASLEAIMGLESSSELFTISVNGVLYLQMGQWTSVFLDNASGCSLTVRSGSHFSAVLLGV

Molecular target: the molecule itself
Assay: SDS-PAGE in reducing and non-reducing conditions

| Protein | stoichiometry N |
| --- | --- |
| B1 | 3 |
| B2 | 3 |
